Experimental data published in patent US20070026475A1.

Target: 4G10 anti-phosphotyrosine monoclonal antibody (Upstate Biotechnology)
Assay: fluorescence polarization competition; competitor of the fluorescent pp60c-src phosphopeptide

- total shift in polarization: < 10 mP
Substance: unphosphorylated peptide (same sequence as the pp60c-src C-terminal phosphoregulatory peptide) (from UniProt P12931 524-536)
